± gives the standard deviation of the averaged measurements.
Test system: ATP
Assay: switch fluorescence ratio, 500 uM ATP over buffer (Cy3 cluster intensity, sum of 5 cycles each) (fold (ratio)); higher = stronger signal-on switching upon ATP binding; sequences stand for … in TCGTCGGCAGCGTCAGATGTGTATAAGAGACAGTTTTTTTTTTTTTTTTTTTTTTTTT…TC
Conditions: aptamer strand: ATP DNA aptamer (quencher-CACCTGGGGGAGTATTGCGGAGGAAGG + anchor), 100 nM annealed; ATP concentration: 500 uM
In short: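 Cy3-labelled switching-strand clusters on a modified Illumina MiSeq flow-cell were annealed to 100 nM quencher-labelled ATP aptamer, imaged in selection buffer, then imaged after 15 min with 500 uM ATP at 22 °C. Five buffer/ATP cycles ran, with NaOH stripping and re-annealing between them. The fluorescence ratio is summed target-cycle over summed buffer-cycle Cy3 intensity per cluster, averaged per switch-domain sequence. Clusters outside 100-1000 RFU were excluded.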
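Also: ATP exposure 15 min at 22 °C before imaging.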

Row | Sequence | switch fluorescence ratio
1 | GTGATAAGCG | 1.03 ± 0.04
2 | TTATTATAGT | 1 ± 0.015
3 | GAACTAAATG | 1 ± 0.055
4 | GGGTTTAGAC | 0.982 ± 0.032
5 | CGTTGCGGTA | 1.04 ± 0.026
6 | TTCCGGAGGG | 1.02 ± 0.063
7 | ATCGCGGGTT | 0.99 ± 0.05
8 | TCTTTGGAAC | 0.997 ± 0.034
9 | AAAAGTGGGA | 1.03 ± 0.031
10 | GGATTAATGT | 0.971 ± 0.022
11 | AAGATCTCTA | 1.01 ± 0.015
12 | CTTTAAGCAA | 4.65 ± 0.36
13 | TACCCCAATT | 1.068 ± 0.0037
14 | GCGCATTTAG | 1.15 ± 0.066
15 | AGAAAAAGGA | 1.01 ± 0.044
16 | CGGTTGGTGA | 0.974 ± 0.035
17 | TTTTTAACAT | 0.993 ± 0.033
18 | GGACTGGTCG | 1 ± 0.022
19 | CGGGGATAGG | 1.041 ± 0.0075
20 | AGGTGGGGG | 0.979 ± 0.015
21 | GGGTTCTATT | 1 ± 0.014
22 | GGGGCCCTTG | 0.97602 ± 9.7e-05
23 | CGAGTCCATC | 0.955 ± 0.012
24 | AATAGGAGAG | 0.987 ± 0.0099
25 | AGAGCAAGGT | 1.08 ± 0.035

Row | Sequence | switch fluorescence ratio
26 | AGGTATAAGG | 1.02 ± 0.019
27 | TAAATCGGTG | 0.977 ± 0.039
28 | TCGGAGATAT | 1 ± 0.045
29 | GGGTGCAGGC | 0.675 ± 0.032
30 | TTTTTATTGA | 1 ± 0.034
31 | GTTAACTTGA | 1.01 ± 0.011
32 | AGTGGAAATT | 1.01 ± 0.049
33 | TGTATTTAGA | 1.02 ± 0.032
34 | GTAGAAAAAG | 1.99 ± 1.4
35 | GGGGGCATTG | 0.9933 ± 0.0084
36 | AATGGCCGCG | 1.08 ± 0.11
37 | TAAAAAGCTC | 1.01 ± 0.021
38 | ATAATTCGTG | 1.01 ± 0.027
39 | TTCAGGGGAG | 0.975 ± 0.04
40 | TAGCCCTTTT | 0.973 ± 0.01
41 | CAGTAAGTGG | 0.999 ± 0.02
42 | AGAGTTTTTT | 0.998 ± 0.018
43 | GACTTGGGAT | 1.034 ± 0.0019
44 | CTTTGGTATA | 0.977 ± 0.0051
45 | TGATCGGGTA | 1 ± 0.011
46 | GCGGCGTGTC | 1.028 ± 0.0083
47 | TTGGTTGAAC | 0.946 ± 0.032
48 | TTAATTGGGT | 1 ± 0.028
49 | GGTTAAGTTT | 0.969 ± 0.025
50 | TACTTGGAAC | 1.04 ± 0.012

Row | Sequence | switch fluorescence ratio
51 | GCAGCTGGTG | 1.098 ± 0.00094
52 | TGAGTAACAG | 0.981 ± 0.012
53 | ATCAAATATC | 1.036 ± 0.0086
54 | GTTTCGAGCG | 1.03 ± 0.013
55 | GGAATATATA | 0.951 ± 0.013
56 | CAGGGAGCCT | 0.988 ± 0.05
57 | AATCATCCTC | 1.06 ± 0.043
58 | GAATTTGCGC | 1.03 ± 0.084
59 | TGTTTAGGAG | 1.014 ± 0.0078
60 | GAATGTTATT | 1.001 ± 0.0065
61 | TCATCACCGT | 1.01 ± 0.021
62 | ATACTGTGTT | 1.014 ± 0.0084
63 | TGCTGGGATT | 1.02 ± 0.044
64 | TAGGGCGACT | 1.04 ± 0.049
65 | TTACCTGAAC | 2.02 ± 0.31
66 | AATAATATAG | 0.996 ± 0.031
67 | AGGAGCAGGG | 1 ± 0.05
68 | TTGGGTATTA | 0.9656 ± 0.0024
69 | TTTTGTGGAC | 0.996 ± 0.034
70 | AGGGCAGGTG | 2.65 ± 0.13
71 | TTTTTATCCA | 0.976 ± 0.026
72 | TATAGGGATT | 0.984 ± 0.015
73 | TGGGTTAGAG | 0.9878 ± 0.0052
74 | GAGCAGAGGT | 0.984 ± 0.011
75 | TTTGGGATCA | 0.9846 ± 0.0073

Row | Sequence | switch fluorescence ratio
76 | TTTATGCGGG | 1.02 ± 0.048
77 | AATACTGTCG | 1.01 ± 0.016
78 | CATTTAGGGG | 0.995 ± 0.036
79 | TTTGCATTGT | 1.03 ± 0.035
80 | TAGTAGGGCA | 1.01 ± 0.033
81 | GTTGGTTATG | 0.99 ± 0.041
82 | CGGGTGTGGC | 1.05 ± 0.015
83 | TGTTAAAAAT | 1.01 ± 0.029
84 | AGCTGAGTAG | 0.997 ± 0.035
85 | GGGGTTGTAA | 0.9938 ± 0.0056
86 | GTATATCCGG | 0.975 ± 0.013
87 | AAGGCTGGCT | 0.99 ± 0.027
88 | TACCGGGGTC | 1 ± 0.042
89 | TAGGAATCCA | 0.999 ± 0.012
90 | GCTTTGGGAA | 1.03 ± 0.04
91 | TATTAGGGTT | 1.03 ± 0.045
92 | GGGGGAACTT | 0.977 ± 0.032
93 | AGAGCGGTTC | 1.06 ± 0.11
94 | CCGGTTGCTG | 1.12 ± 0.066
95 | TTGAGGGATC | 1.01 ± 0.06
96 | TAGAGCTTAG | 0.9812 ± 0.0037
97 | AGACCGCTTA | 1.15 ± 0.036
98 | CAAGTGAATG | 1.01 ± 0.017
99 | TCAAATTTTA | 1.02 ± 0.031
100 | TGAGCTTTTT | 0.993 ± 0.03

Reference: the supplement of paper PMC10126150
